Laboratory results: the supplement of paper PMC9876800

System: peptide library, one residue held at a place counted from the S/T acceptor
Assay: relative phosphorylation of the sub-library (ratio to the mean residue at this position); higher = residue favoured
Settings: human
Outline: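 Spots on streptavidin membranes were phosphorimaged and quantified by densitometry to measure phosphorylation of biotinylated degenerate peptide sub-libraries by purified recombinant kinases, human or orthologue constructs. The reactions ran in 384-well plates for 90 min under kinase-specific conditions, with peptides at 50 μM and 50 μM ATP spiked with γ-32P-ATP. Relative sub-library phosphorylation is the ratio to the mean residue at that position.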

Sequence of HIPK1, construct: aa158-555 (Q86Z02 158-555, looked up): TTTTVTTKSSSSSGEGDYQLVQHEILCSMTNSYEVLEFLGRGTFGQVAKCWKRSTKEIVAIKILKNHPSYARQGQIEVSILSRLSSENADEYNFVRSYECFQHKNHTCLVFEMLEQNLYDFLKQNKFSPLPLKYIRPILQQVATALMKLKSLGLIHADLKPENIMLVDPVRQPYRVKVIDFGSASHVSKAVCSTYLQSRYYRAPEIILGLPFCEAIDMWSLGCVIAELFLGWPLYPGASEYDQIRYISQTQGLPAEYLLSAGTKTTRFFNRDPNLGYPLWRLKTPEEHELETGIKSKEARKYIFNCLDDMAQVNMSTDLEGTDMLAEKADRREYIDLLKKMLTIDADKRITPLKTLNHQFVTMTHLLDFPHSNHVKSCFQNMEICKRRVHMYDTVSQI

HIPK1, construct: aa158-555 (from UniProt Q86Z02)
relative phosphorylation
Settings	at +1	at +2	at +3	at +4	at -1	at -2	at -3	at -4	at -5
A fixed	0.711	1.04	0.979	0.83	1.21	2.16	0.93	1	0.905
D fixed	0.165	0.679	0.59	0.795	0.471	0.278	0.49	0.719	0.716
E fixed	0.193	0.512	0.51	0.687	0.485	0.283	0.464	0.762	0.634
F fixed	0.264	1.15	0.885	1.04	0.567	0.398	0.342	0.668	0.793
G fixed	0.896	1.37	1.19	1.14	1.26	0.872	1.27	1.13	0.991
H fixed	0.354	1.23	1.17	1.07	0.881	0.454	0.698	0.884	1.06
I fixed	0.421	0.708	0.92	0.978	0.536	0.999	0.42	0.781	0.883
K fixed	0.503	1.42	0.886	1.12	1.75	0.898	1.13	1.3	1.26
L fixed	0.329	0.928	1.2	1	0.682	0.862	0.525	0.876	0.84
M fixed	0.272	0.815	0.972	1.04	0.916	0.607	0.484	0.793	0.742
N fixed	0.318	1.04	0.826	1.01	0.761	0.735	0.677	0.704	0.928
P fixed	8.97	1.1	2.4	1.14	1.91	2.58	1.07	1.22	1.21
Q fixed	0.399	0.888	0.885	0.981	0.967	0.605	0.71	0.856	0.89
R fixed	1.85	1.55	1.06	1.13	2.49	3.33	6.49	3.08	2.25
V fixed	0.793	0.755	0.863	0.954	0.645	1.17	0.47	0.706	0.794
W fixed	0.284	0.966	0.886	1.16	0.673	0.389	0.426	0.784	0.825
Y fixed	0.276	0.848	0.772	0.917	0.801	0.381	0.397	0.723	1.27
pThr fixed	0.387	0.46	0.541	0.711	0.485	1.05	0.712	0.94	1.05
pTyr fixed	0.453	0.444	0.772	0.757	0.599	0.431	0.644	0.648	1.04
